From article PMC3994269
Values joined by “and” are separate entries in the source; they are usually repeats but may differ in a detail not shown here. Equal entries are not always repeated.

How the values were obtained:
[1] = target: Plasmodium falciparum heat shock factor binding protein (PfHSBP), endogenous (P. falciparum (endogenous in 3D7 parasites)) (UniProt Q8IIF8); test: SDS-PAGE and immunoblot (SDS-resistant oligomers); P. falciparum lysate resolved on SDS-PAGE and probed with anti-PfHSBP antiserum; pre-immune serum as control
[2] = target: Plasmodium falciparum heat shock factor binding protein (PfHSBP), endogenous (P. falciparum (endogenous in 3D7 parasites)) (UniProt Q8IIF8); test: SEC; P. falciparum lysate on Superdex 200 10/300 GL in PBS; fractions immunoblotted for PfHSBP
[3] = target: Plasmodium falciparum heat shock factor binding protein (PfHSBP), endogenous (P. falciparum (endogenous in 3D7 parasites)) (UniProt Q8IIF8); test: immunoprecipitation, SDS-PAGE and phosphorimaging; lysate of [35S]-labelled P. falciparum (1% Triton X-100); anti-PfHSBP antiserum 1:25 at 4°C for 12 hours, Protein G beads; Protein G and pre-immune serum controls

Plasmodium falciparum heat shock factor binding protein (PfHSBP), endogenous (from UniProt Q8IIF8 1-113) (natural protein)
stoichiometry N [1]: 3 and 6 | stoichiometry N [2]: 6 | stoichiometry N [3]: 6
